Measurements taken from patent US20110318339A1 (FABRUS, published 2011).
Numbering of substitutions follows the chain as printed. Names may count otherwise.

B1: Fab H:APFF & L:NDH (Fab, V domains shown)
VH: QVQLVQSGAEVKKPGASVKVSCKASGYTFTSYYMHWVRQAPGQGLEWMGIINPSGGSTSYAQKFQGRVTMTRDTSTSTVYMELSSLRSEDTAVYYCAREEYAPFSAEYFQFWGQGTLVTVSS
VL: EIVLTQSPATLSLSPGERATLSCRASQNVDHYLAWYQQKPGQAPRLLIYDASNRATGIPARFSGSGSGTDFTLTISSLEPEDFAVYYCQQRSNWPPWTFGQGTKVEIKR
notes: Fab, kappa light chain; also called VH1-46_IGHD6-6*01_IGHJ1*01 S102A/S103P/S104F/H111F & L6_IGKJ1*01 S28N/S30D/S31H
B2: Fab H:APFF LTH & L:NDH (Fab, V domains shown)
VH: B1 VH with N52L, S54T, G56H
VL: B1 VL
notes: Fab, kappa light chain
B3: Fab H:APFF LTH & L:NDH LG (Fab, V domains shown)
VH: B1 VH with N52L, S54T, G56H
VL: B1 VL with S52L, A55G
notes: Fab, kappa light chain
B4: Fab H:APFF G56A & L:NDH (Fab, V domains shown)
VH: B1 VH with G56A
VL: B1 VL
notes: Fab, kappa light chain
B5: Fab VH1-46_IGHD6-6*01_IGHJ1*01 S102A/S103P/S104F/H111F I51A/N52L/S54T/G56H & L6_IGKJ1*01 S28N/S30D/S31H S52L/A55S (Fab, V domains shown)
VH: B1 VH with I51A, N52L, S54T, G56H
VL: B1 VL with S52L, A55S
notes: Fab made in E. coli: VH on CH1 with His6 and Flag tags (Plasmid A), VL on kappa CL (Plasmid C); also called H: APFF ALTH & L: NDH LS
B6: Fab VH1-46_IGHD6-6*01_IGHJ1*01 S102A/S103P/S104F/H111F I51A/N52L/S54T/G56H & L6_IGKJ1*01 S28N/S30D/S31H S52L/A55G (Fab, V domains shown)
VH: B1 VH with I51A, N52L, S54T, G56H
VL: B1 VL with S52L, A55G
notes: Fab made in E. coli: VH on CH1 with His6 and Flag tags (Plasmid A), VL on kappa CL (Plasmid C); also called H: APFF ALTH & L: NDH LG
B7: Fab VH1-46_IGHD6-6*01_IGHJ1*01 S102A/S103P/S104F/H111F I51V/N52L/S54T/G56H & L6_IGKJ1*01 S28N/S30D/S31H S52L/A55G (Fab, V domains shown)
VH: B1 VH with I51V, N52L, S54T, G56H
VL: B1 VL with S52L, A55G
notes: Fab made in E. coli: VH on CH1 with His6 and Flag tags (Plasmid A), VL on kappa CL (Plasmid C); also called H: APFF VLTH & L: NDH LG
B8: Fab VH1-46_IGHD6-6*01_IGHJ1*01 S102A/S103P/S104F/H111F N52L/S54T/G56H & L6_IGKJ1*01 S28N/S30D/S31H S52L/A55S (Fab, V domains shown)
VH: B1 VH with N52L, S54T, G56H
VL: B1 VL with S52L, A55S
notes: Fab made in E. coli: VH on CH1 with His6 and Flag tags (Plasmid A), VL on kappa CL (Plasmid C); also called H: APFF LTH & L: NDH LS
B9: Fab VH1-46_IGHD6-6*01_IGHJ1*01 S102A/S103P/S104F/H111F I51A/N52L/S54T/G56H & L6_IGKJ1*01 S28N/S30D/S31H (Fab, V domains shown)
VH: B1 VH with I51A, N52L, S54T, G56H
VL: B1 VL
notes: Fab made in E. coli: VH on CH1 with His6 and Flag tags (Plasmid A), VL on kappa CL (Plasmid C); also called H: APFF ALTH & L: NDH

biological target: T1, Recombinant Human DLL4 (Cat# 1506-D4/CF, R&D Systems) (human, UniProt Q9NR61 27-529); test: ELISA, DLL4 coated
T1 construct: Bought protein; also called rHuman DLL4; hDLL4

Row | fold increased affinity against Fab mutant APFF (H:APFF & L:wt) | fold increased binding affinity against the antibody mutants with heavy chain H:APFF ALTH | fold greater affinity against H:APFF & L:wt | Binder
1 | 4 fold |  |  | B1
2 |  | ~10 fold |  | B2
3 |  | ~10 fold |  | B3
4 |  |  | 8 fold | B4

biological target: T2, recombinant human DLL4 (Cat# 1506-D4/CF, R&D Systems) (human, UniProt Q9NR61 27-529); test: ELISA, DLL4 coated, Fab 20 nM
T2 construct: Bought protein; also called hDLL4; rHuman DLL4
Method: (§1) The plate was blocked by adding 1% BSA in Tris-buffered Saline Tween (TBST) and incubating for 1 hour at room temperature followed by washing 2 times with 150 μl TBST. A Fab antibody was serially diluted in 1% BSA in PBS. A 50 μl aliquot of each serial dilution was added, in triplicate, to each well and the plate was incubated for 1 hour at room temperature followed by washing 2 times with TBST. 50 μl of either goat anti-human kappa HRP conjugated secondary antibody (Cat # A7164-1 mL, Sigma-Aldrich) or goat anti-human lambda HRP conjugated secondary antibody (Cat # L1645-1 ml, Sigma-Aldrich), diluted 1:1000 in 1% BSA in PBS, was added to each well and the plate was incubated for 30 minutes at room temperature followed by washing 3 times with 200 μl TBST. Finally, 50 μl TMB one-component reagent (Cat # TMBW-1000-01, BioFax) was added and allowed to develop for 2 minutes at room temperature. The reaction was immediately halted by the addition of 50 μl 0.5M H₂SO₄ and the absorbance at 450 nm was measured using an ELISA plate reader.

Row | ELISA absorbance at 450 nm | Binder
5 | 0.458 A450 | B5
6 | 0.39 A450 | B6
7 | 1.06 A450 | B7
8 | 1.05 A450 | B8
9 | 0.391 A450 | B9

biological target: T2, recombinant human DLL4 (Cat# …); test: ELISA, DLL4 coated, Fab 0.74 nM
Method: as §1

Row | ELISA absorbance at 450 nm | Binder
10 | 0.046 A450 | B5
11 | 0.028 A450 | B6
12 | 0.397 A450 | B7
13 | 0.398 A450 | B8
14 | 0.024 A450 | B9

biological target: T2, recombinant human DLL4 (Cat# …); test: ELISA, DLL4 coated, Fab 2.22 nM
Method: as §1

Row | ELISA absorbance at 450 nm | Binder
15 | 0.04 A450 | B5
16 | 0.069 A450 | B6
17 | 0.755 A450 | B7
18 | 0.557 A450 | B8
19 | 0.069 A450 | B9

biological target: T2, recombinant human DLL4 (Cat# …); test: ELISA, DLL4 coated, Fab 6.67 nM
Method: as §1

Row | ELISA absorbance at 450 nm | Binder
20 | 0.282 A450 | B5
21 | 0.212 A450 | B6
22 | 0.916 A450 | B7
23 | 0.916 A450 | B8
24 | 0.232 A450 | B9
